# According to IntAct's records for PubMed 20561531:
# B1: PRKC apoptosis WT1 regulator protein (Homo sapiens), Q96IZ0 (parent)
# chain: MATGGYRTSSGLGGSTTDFLEEWKAKREKMRAKQNPPGPAPPGGGSSDAAGKPPAGALGTPAAAAANELNNNLPGGAPAAPAVPGPGGVNCAVGSAMLTRAAPGPRRSEDEPPAASASAAPPPQRDEEEPDGVPEKGKSSGPSARKGKGQIEKRKLREKRRSTGVVNIPAAECLDEYEDDEAGQKERKREDAITQQNTIQNEAVNLLDPGSSYLLQEPPRTVSGRYKSTTSVSEEDVSSRYSRTDRSGFPRYNRDANVSGTLVSSSTLEKKIEDLEKEVVRERQENLRLVRLMQDKEEMIGKLKEEIDLLNRDLDDIEDENEQLKQENKTLLKVVGQLTR
# B2: PRKC apoptosis WT1 regulator protein (Homo sapiens), Q96IZ0 (parent)
# chain: B1 chain
# partner: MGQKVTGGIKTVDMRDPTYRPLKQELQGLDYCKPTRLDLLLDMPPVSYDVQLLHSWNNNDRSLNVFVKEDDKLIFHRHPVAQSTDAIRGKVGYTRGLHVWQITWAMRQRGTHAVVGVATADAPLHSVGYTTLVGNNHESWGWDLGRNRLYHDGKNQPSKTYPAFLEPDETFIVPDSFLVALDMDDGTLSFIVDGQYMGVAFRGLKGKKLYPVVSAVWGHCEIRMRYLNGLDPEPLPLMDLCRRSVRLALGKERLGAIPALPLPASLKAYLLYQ
# B3: SPRY domain-containing SOCS box protein 2 (Mus musculus), O88838 (parent)
# chain: MGQTALARGSSSTPTSQALYSDFSPPEGLEELLSAPPPDLVAQRHHGWNPKDCSENIDVKEGGLCFERRPVAQSTDGVRGKRGYSRGLHAWEISWPLEQRGTHAVVGVATALAPLQADHYAALLGSNSESWGWDIGRGKLYHQSKGLEAPQYPAGPQGEQLVVPERLLVVLDMEEGTLGYSIGGTYLGPAFRGLKGRTLYPSVSAVWGQCQVRIRYMGERRVEEPQSLLHLSRLCVRHALGDTRLGQISTLPLPPAMKRYLLYK
# partner: B1 chain
# Variants of: B1
# Settings: with spsb2_mouse Spsb2, O88838
row,effect of a mutation on the interaction,Variant
1,increasing interaction,L69I
2,disrupting interaction,N70A
3,increasing interaction,E68D
4,increasing interaction,E68D;L69I
5,disrupting interaction,N71A

# Variants of: B1
# Settings: with spsb4_mouse Spsb4, Q8R5B6
# spsb4_mouse Spsb4, Q8R5B6, sequence (Q8R5B6 whole entry): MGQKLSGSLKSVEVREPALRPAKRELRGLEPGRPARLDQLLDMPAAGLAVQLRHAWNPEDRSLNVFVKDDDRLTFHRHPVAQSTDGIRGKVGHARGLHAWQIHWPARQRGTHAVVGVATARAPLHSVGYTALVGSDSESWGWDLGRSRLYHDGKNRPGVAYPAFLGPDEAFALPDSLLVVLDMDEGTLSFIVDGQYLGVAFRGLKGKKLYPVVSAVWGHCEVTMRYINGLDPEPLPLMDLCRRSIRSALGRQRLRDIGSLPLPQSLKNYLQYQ
row,effect of a mutation on the interaction,Variant
1,increasing interaction,L69I
2,disrupting interaction,N70A
3,increasing interaction,E68D
4,increasing interaction,E68D;L69I
5,disrupting interaction,N71A

# Variants of: B1
# Settings: with spsb2_mouse Spsb2, O88838
# Remark: another data set of the same source
row,effect of a mutation on the interaction,Variant
1,disrupting interaction,N72A

# Variants of: B1
# Settings: with spsb4_mouse Spsb4, Q8R5B6
# Remark: another data set of the same source
row,effect of a mutation on the interaction,Variant
1,disrupting interaction,N72A

# Variants of: B2
# Settings: with spsb1_mouse Spsb1, Q9D5L7
row,effect of a mutation on the interaction,Variant
1,disrupting interaction,N70A
2,disrupting interaction,N71A
3,increasing interaction,E68D;L69I

# Variants of: B3
# Settings: with pawr_human PAWR, Q96IZ0
row,effect of a mutation on the interaction,Variant
1,disrupting interaction,Y120A
2,disrupting interaction,V206A
3,disrupting interaction,S126A;N127A;S128A
4,disrupting interaction,L123A;L124A;G125A
